From publication PMC3864932, “Identification of Crucial Amino Acids in Mouse Aldehyde Oxidase 3 That Determine Substrate Specificity” (PLoS ONE, 2013) come the findings set out here.

One series relates to T1, mAOX3-FeSI-mAOX1.
T1 construct: gene Aox3; mAOX3 with A87-Q214 replaced by T83-Q213 of mAOX1 (FeSI domain); N-terminal His6-tag; E. coli; dimer
As to the kind of experiment: steady-state kinetics, DCPIP reduction at […] nm. The series is classed as biochemical, Mus musculus. To be noted: 100 µM DCPIP as electron acceptor, 50 mM Tris-HCl pH 8.0, 1 mM EDTA, 37 °C; kcat corrected for Mo content.

Substrate in series [1]: c1ccc2c(c1)cnc1ccccc12
The series can be described thus: purified protein. The settings on record: O2 (air-saturated buffer) as electron acceptor, 50 mM Tris-HCl pH 8.0, 1 mM EDTA, 37 °C, kcat corrected for Mo content.

Substrate in series [2]: c1ccc2cnncc2c1
The series can be described thus: purified protein. The format is biochemical, Mus musculus. To be noted: 100 µM DCPIP as electron acceptor, 50 mM Tris-HCl pH 8.0, 1 mM EDTA, 37 °C, kcat corrected for Mo content.

Substrate in series [3]: C[n+]1cccc(C(N)=O)c1
As to the kind of experiment: purified protein. The series is classed as biochemical, Mus musculus. To be noted: 100 µM DCPIP as electron acceptor, 50 mM Tris-HCl pH 8.0, 1 mM EDTA, 37 °C, kcat corrected for Mo content.

The term Km denotes the substrate concentration at which the rate is half of its maximum. With `O=c1[nH]cnc2[nH]ncc12` [allopurinol], the Km with mAOX3-FeSI-mAOX1 came out at 1340 ± 43 µM.

B1: mAOX3 (mouse aldehyde oxidase 3) (Mus musculus; P1015G) (protein)
chain: MSPSKESDELIFFVNGKKVTERNADPEVNLLFYLRKVIRLTGTKYGCGGGDCGACTVMISRYDPISKRISHFSATACLVPICSLHGAAVTTVEGIGSTKTRIHPVQERIAKGHGTQCGFCTPGMVMSIYTLLRNHPEPSTEQIMETLGGNLCRCTGYRPIVESAKSFCPSSTCCQMNGEGKCCLDEEKNEPERKNSVCTKLYEKKEFQPLDPTQELIFPPELMRMAEESQNTVLTFRGERTTWIAPGTLNDLLELKMKHPSAPLVIGNTYLGLHMKFTDVSYPIIISPARILELFVVTNTKQGLTLGAGLSLTQVKNVLSDVVSRLPKEKTQIYCALLKQLKTLAGQQIRNVASLGGHIISRLPTSDLNPILGIGNCILNVASTEGIQQIPLNDHFLAGVPDAILKPEQVLISVFVPRSSKWEFVSAFRQAPRQQNAFATVNAGMKVVFKEDTNTITDLGILYGGIGATVISADKSCRQLIGRCWDEEMLDDAGKMICEEVSLLMAAPGGMEEYRKTLAISFLFMFYLDVLKQLKTRDPHKYPDISQKLLHILEDFPLTMPYGMQSFQDVDFQQPLQDPIGRPIMHQSGIKHATGEAVFCDDMSVLPGELFLAVVTSSKSHAKIISLDASEALASLGVVDVVTARDVPGDNGREEESLYAQDEVICVGQIVCAVAADSYAHAQQAAKKVKIVYQDIEPMIVTVQDALQYESFIGPERKLEQGNVEEAFQCADQILEGEVHLGGQEHFYMETQSVRVVPKGEDKEMDIYVSSQDAAFTQEMVARTLGIPKNRINCHVKRVGGAFGGKASKPGLLASVAAVAAQKTGRPIRFILERRDDMLITGGRHPLLGKYKIGFMNNGKIKAADIQLYINGGCTPDDSELVIEYALLKLENAYKIPNLRVRGRVCKTNLPSNTAFRGFGFPQGAFVTETCMSAVAAKCRLPPEKVRELNMYRTIDRTIHNQEFDPTNLLQCWEACVENSSYYNRKKAVDEFNQQRFWKKRGIAIIPMKFSVGFGKTFYYQAAALVQIYTDGSVLVAHGGVELGQGINTKMIQVASRELKIPMSYIHLDEMSTVTVPNTVTTGASTGADVNGRAVQNACQILMKRLEPIIKQNPSGTWEEWVKEAFVQSISLSATGYFRGYQADMDWEKGEGDIFPYFVFGAACSEVEIDCLTGAHKNIRTDIVMDGSFSINPAVDIGQIEGAFVQGLGLYTLEELKYSPEGVLYTRGPHQYKIASVTDIPEEFHVSLLTPTPNPKAIYSSKGLGEAGTFLGCSVFFAIAAAVAAAREERGLSPIWAINSPATAEVIRMACEDQFTNLVPQTDSKCCKPWSIPVA
A word on the kcat: it is the maximal rate divided by the concentration of active sites. Usually kcat/Km stands for the turnover number divided by the Michaelis constant. For B1, in the series “purified protein [1]”, the Km is 47 ± 2 µM, the kcat turned out to be 8.83 s⁻¹ and the kcat/Km came to 189000 M⁻¹ s⁻¹.

B2: mAOX3 (mouse aldehyde oxidase 3) (Mus musculus; F1014V) (protein)
chain: MSPSKESDELIFFVNGKKVTERNADPEVNLLFYLRKVIRLTGTKYGCGGGDCGACTVMISRYDPISKRISHFSATACLVPICSLHGAAVTTVEGIGSTKTRIHPVQERIAKGHGTQCGFCTPGMVMSIYTLLRNHPEPSTEQIMETLGGNLCRCTGYRPIVESAKSFCPSSTCCQMNGEGKCCLDEEKNEPERKNSVCTKLYEKKEFQPLDPTQELIFPPELMRMAEESQNTVLTFRGERTTWIAPGTLNDLLELKMKHPSAPLVIGNTYLGLHMKFTDVSYPIIISPARILELFVVTNTKQGLTLGAGLSLTQVKNVLSDVVSRLPKEKTQIYCALLKQLKTLAGQQIRNVASLGGHIISRLPTSDLNPILGIGNCILNVASTEGIQQIPLNDHFLAGVPDAILKPEQVLISVFVPRSSKWEFVSAFRQAPRQQNAFATVNAGMKVVFKEDTNTITDLGILYGGIGATVISADKSCRQLIGRCWDEEMLDDAGKMICEEVSLLMAAPGGMEEYRKTLAISFLFMFYLDVLKQLKTRDPHKYPDISQKLLHILEDFPLTMPYGMQSFQDVDFQQPLQDPIGRPIMHQSGIKHATGEAVFCDDMSVLPGELFLAVVTSSKSHAKIISLDASEALASLGVVDVVTARDVPGDNGREEESLYAQDEVICVGQIVCAVAADSYAHAQQAAKKVKIVYQDIEPMIVTVQDALQYESFIGPERKLEQGNVEEAFQCADQILEGEVHLGGQEHFYMETQSVRVVPKGEDKEMDIYVSSQDAAFTQEMVARTLGIPKNRINCHVKRVGGAFGGKASKPGLLASVAAVAAQKTGRPIRFILERRDDMLITGGRHPLLGKYKIGFMNNGKIKAADIQLYINGGCTPDDSELVIEYALLKLENAYKIPNLRVRGRVCKTNLPSNTAFRGFGFPQGAFVTETCMSAVAAKCRLPPEKVRELNMYRTIDRTIHNQEFDPTNLLQCWEACVENSSYYNRKKAVDEFNQQRFWKKRGIAIIPMKFSVGVPKTFYYQAAALVQIYTDGSVLVAHGGVELGQGINTKMIQVASRELKIPMSYIHLDEMSTVTVPNTVTTGASTGADVNGRAVQNACQILMKRLEPIIKQNPSGTWEEWVKEAFVQSISLSATGYFRGYQADMDWEKGEGDIFPYFVFGAACSEVEIDCLTGAHKNIRTDIVMDGSFSINPAVDIGQIEGAFVQGLGLYTLEELKYSPEGVLYTRGPHQYKIASVTDIPEEFHVSLLTPTPNPKAIYSSKGLGEAGTFLGCSVFFAIAAAVAAAREERGLSPIWAINSPATAEVIRMACEDQFTNLVPQTDSKCCKPWSIPVA
notes: N-terminal His6-tag, full length, plasmid pMMA1, expressed in E. coli; homodimer with Moco, two [2Fe-2S], FAD
In the case of B2, in the series “purified protein [2]”, the Km came to 12.5 ± 0.6 µM, the kcat came out at 4.63 ± 0.233 s⁻¹ and the kcat/Km came out at 372000 ± 25000 M⁻¹ s⁻¹.

B3: mAOX3 (mouse aldehyde oxidase 3) (Mus musculus; P1015A) (protein)
chain: MSPSKESDELIFFVNGKKVTERNADPEVNLLFYLRKVIRLTGTKYGCGGGDCGACTVMISRYDPISKRISHFSATACLVPICSLHGAAVTTVEGIGSTKTRIHPVQERIAKGHGTQCGFCTPGMVMSIYTLLRNHPEPSTEQIMETLGGNLCRCTGYRPIVESAKSFCPSSTCCQMNGEGKCCLDEEKNEPERKNSVCTKLYEKKEFQPLDPTQELIFPPELMRMAEESQNTVLTFRGERTTWIAPGTLNDLLELKMKHPSAPLVIGNTYLGLHMKFTDVSYPIIISPARILELFVVTNTKQGLTLGAGLSLTQVKNVLSDVVSRLPKEKTQIYCALLKQLKTLAGQQIRNVASLGGHIISRLPTSDLNPILGIGNCILNVASTEGIQQIPLNDHFLAGVPDAILKPEQVLISVFVPRSSKWEFVSAFRQAPRQQNAFATVNAGMKVVFKEDTNTITDLGILYGGIGATVISADKSCRQLIGRCWDEEMLDDAGKMICEEVSLLMAAPGGMEEYRKTLAISFLFMFYLDVLKQLKTRDPHKYPDISQKLLHILEDFPLTMPYGMQSFQDVDFQQPLQDPIGRPIMHQSGIKHATGEAVFCDDMSVLPGELFLAVVTSSKSHAKIISLDASEALASLGVVDVVTARDVPGDNGREEESLYAQDEVICVGQIVCAVAADSYAHAQQAAKKVKIVYQDIEPMIVTVQDALQYESFIGPERKLEQGNVEEAFQCADQILEGEVHLGGQEHFYMETQSVRVVPKGEDKEMDIYVSSQDAAFTQEMVARTLGIPKNRINCHVKRVGGAFGGKASKPGLLASVAAVAAQKTGRPIRFILERRDDMLITGGRHPLLGKYKIGFMNNGKIKAADIQLYINGGCTPDDSELVIEYALLKLENAYKIPNLRVRGRVCKTNLPSNTAFRGFGFPQGAFVTETCMSAVAAKCRLPPEKVRELNMYRTIDRTIHNQEFDPTNLLQCWEACVENSSYYNRKKAVDEFNQQRFWKKRGIAIIPMKFSVGFAKTFYYQAAALVQIYTDGSVLVAHGGVELGQGINTKMIQVASRELKIPMSYIHLDEMSTVTVPNTVTTGASTGADVNGRAVQNACQILMKRLEPIIKQNPSGTWEEWVKEAFVQSISLSATGYFRGYQADMDWEKGEGDIFPYFVFGAACSEVEIDCLTGAHKNIRTDIVMDGSFSINPAVDIGQIEGAFVQGLGLYTLEELKYSPEGVLYTRGPHQYKIASVTDIPEEFHVSLLTPTPNPKAIYSSKGLGEAGTFLGCSVFFAIAAAVAAAREERGLSPIWAINSPATAEVIRMACEDQFTNLVPQTDSKCCKPWSIPVA
notes: as for B2
As for B3, in the series “purified protein [3]”, the Km was determined as 87 ± 3.4 µM, the kcat worked out at 1.08 ± 0.183 s⁻¹ and the kcat/Km stood at 12400 ± 2200 M⁻¹ s⁻¹.
